Target: [Lys]plasminogen (human)
Assay: kinetics of conformational plasminogen activation

streptokinase ALAB49 SK2b variant with Tyr4 substituted by Pro (natural protein)
Kd: 0.6 µM
